One assay deals with α4-CFP (mouse) (UniProt O70174). Description: acceptor photobleaching FRET, N2a cells, untagged β2 coexpressed.
The target of assay [1] is CFP-labeled GluCl β subunit (UniProt Q17328). Description: acceptor photobleaching FRET, N2a cells; specificity control.
For a further assay, the target named is β2-CFP (mouse) (UniProt Q9ERK7). Description: acceptor photobleaching FRET, N2a cells, within the same α4β2 pentamer.
β2-CFP (mouse), sequence (Q9ERK7 26-501): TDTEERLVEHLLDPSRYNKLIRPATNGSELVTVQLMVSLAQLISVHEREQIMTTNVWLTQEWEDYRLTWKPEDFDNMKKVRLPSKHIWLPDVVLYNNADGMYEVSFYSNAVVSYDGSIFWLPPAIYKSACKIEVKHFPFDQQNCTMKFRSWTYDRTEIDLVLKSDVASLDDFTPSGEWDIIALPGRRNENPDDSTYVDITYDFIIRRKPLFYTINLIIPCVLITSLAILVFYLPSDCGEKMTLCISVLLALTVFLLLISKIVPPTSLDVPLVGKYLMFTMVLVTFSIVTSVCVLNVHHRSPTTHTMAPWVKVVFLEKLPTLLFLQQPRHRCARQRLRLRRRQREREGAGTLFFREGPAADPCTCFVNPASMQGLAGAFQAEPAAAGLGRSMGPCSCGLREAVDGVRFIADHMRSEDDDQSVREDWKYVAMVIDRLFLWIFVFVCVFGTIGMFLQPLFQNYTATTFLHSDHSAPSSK

CFP-labeled GluCl β subunit, sequence (Q17328 23-434): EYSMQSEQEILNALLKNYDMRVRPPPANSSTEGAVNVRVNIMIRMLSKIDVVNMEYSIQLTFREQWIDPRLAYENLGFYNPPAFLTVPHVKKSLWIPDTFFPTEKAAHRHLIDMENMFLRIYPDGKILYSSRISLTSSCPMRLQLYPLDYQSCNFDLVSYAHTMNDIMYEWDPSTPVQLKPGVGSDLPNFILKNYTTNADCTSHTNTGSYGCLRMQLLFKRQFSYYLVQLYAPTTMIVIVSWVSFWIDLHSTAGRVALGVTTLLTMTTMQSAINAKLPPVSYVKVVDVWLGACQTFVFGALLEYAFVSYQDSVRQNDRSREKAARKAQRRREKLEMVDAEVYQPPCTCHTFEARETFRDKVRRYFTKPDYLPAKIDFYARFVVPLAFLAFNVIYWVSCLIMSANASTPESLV
β2-YFP, sequence (Q9ERK7 26-501): as the sequence (Q9ERK7 26-501) above
α4-YFP, sequence (O70174 31-629): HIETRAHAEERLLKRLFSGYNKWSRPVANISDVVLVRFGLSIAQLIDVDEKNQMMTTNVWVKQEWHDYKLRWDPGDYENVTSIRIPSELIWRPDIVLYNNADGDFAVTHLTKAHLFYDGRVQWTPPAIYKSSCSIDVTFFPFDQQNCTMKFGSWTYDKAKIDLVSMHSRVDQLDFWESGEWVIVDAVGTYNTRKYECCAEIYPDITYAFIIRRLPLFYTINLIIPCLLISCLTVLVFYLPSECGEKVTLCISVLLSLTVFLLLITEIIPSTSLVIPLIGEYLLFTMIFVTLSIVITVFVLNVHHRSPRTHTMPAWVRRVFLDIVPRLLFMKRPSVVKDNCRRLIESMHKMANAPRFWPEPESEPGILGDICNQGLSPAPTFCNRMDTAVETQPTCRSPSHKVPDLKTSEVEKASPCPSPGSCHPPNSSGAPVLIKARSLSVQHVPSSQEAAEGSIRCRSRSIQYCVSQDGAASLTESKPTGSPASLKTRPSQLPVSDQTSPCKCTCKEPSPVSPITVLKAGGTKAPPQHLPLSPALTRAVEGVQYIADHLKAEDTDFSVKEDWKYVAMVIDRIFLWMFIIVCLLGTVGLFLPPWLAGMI
α4-CFP (mouse), sequence (O70174 31-629): as above

Regarding “α4-YFP (from UniProt O70174 31-629) (receptor)”, the FRET E with α4-CFP (mouse) is 22.2%.

“α6-YFP^A405 (from UniProt Q9R0W9 31-405; Q9R0W9 406-494) (receptor)” came in with an FRET E in assay [1] of 14%.

For the substance “β2-YFP (from UniProt Q9ERK7 26-501) (receptor)”, the FRET E with β2-CFP (mouse) amounted to 16.3%.

On to “β3-YFP^P379 (from UniProt Q8BMN3 31-379; Q8BMN3 380-464) (receptor)”, for which the FRET E in assay [1] is 6%.

These data come from patent publication US20090100532A1, “TRANSGENIC MICE EXPRESSING HYPERSENSITIVE NICOTINIC RECEPTORS” (CALIFORNIA INSTITUTE OF TECHNOLOGY, priority 2007, published 2009).
